The values below come from patent publication US20070141048A1 (SYMPHOGEN A S, published 2007).

T1: Ovalbumin (UniProt P01012 2-386)
T1 sequence: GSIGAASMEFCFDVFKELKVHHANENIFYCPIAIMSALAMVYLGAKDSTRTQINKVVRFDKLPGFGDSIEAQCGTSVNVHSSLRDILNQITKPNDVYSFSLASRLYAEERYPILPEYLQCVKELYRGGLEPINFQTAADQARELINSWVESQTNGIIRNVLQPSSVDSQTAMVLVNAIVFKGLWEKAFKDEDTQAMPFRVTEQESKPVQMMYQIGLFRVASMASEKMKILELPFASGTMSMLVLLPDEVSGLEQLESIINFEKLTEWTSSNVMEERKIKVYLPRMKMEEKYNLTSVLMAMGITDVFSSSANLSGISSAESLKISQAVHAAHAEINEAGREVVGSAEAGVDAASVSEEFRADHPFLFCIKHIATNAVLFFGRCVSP

B1: g060c07 (Fab, V domains shown)
VH: KVQLVQSGAEVKKPGESLKISCQASGYGFTVYWIGWVRQPPGKGLEWLGIIYPGDSDTRYNPSFQGQVTISADKSVSTTYLQWSSLKASDTAIYYCARHLDSYDVFTGYNLGGYMDVWGKGTLVTVS
VL: ETTLTQSPGTLSLSPGERATLSCRASQSVSTNYLAWYRQKPGQAPRLLIHGASSRATGIPDRFSGSGSGTDFTLTISRLEPEDFAVYFCQQYGSSPQTFGQGTRLEIK
B2: g060g02 (Fab, V domains shown)
VH: EVQLVQSGAEVKKPGESLKISCQASGYGFTVYWIGWVRQLPGKGLEWLGIIYPGDSDTRYNPSFQGQVTISADKSVSTTYLQWSSLKASDTAIYYCARHLDSYDVFTGYNLGGYMDVWGKGTMVTVS
VL: DIQLTQSPGTLSLSPGERATLSCRASQSVSTNYLAWYRQKPGQAPRLLIHGASSRATGIPDRFSGSGSGTDFTLTISRLEPEDFAVYFCQQYGSSPQTFGQGTRLEIK
B3: g060h10 (Fab, V domains shown)
VH: EVQLVESGAEVKKPGSSVKVSCKASGGSFSTYAITWVRQAPGQGLEWMGGIIPIFASRDYAQKFQGRVTITADESTRTVYMELSSLRSDDTAVYYCARVLGGTRLYYALNVWGQGTTVTVS
VL: DIQLTQSPSSLSASVGDRVTITCRASQGISNFLAWYQQKPGKVPELLIYGASTLQSGVPSRFSGSGSGTEFTLTINSLQPEDVATYYCQKYDSGLRFTFGPGTKVDIK
B4: g060g11 (Fab, V domains shown)
VH: EVQLVESGAEVKKPGSSVKVSCKASGGSFSTYIFTWVRQAPGQGLEWMGGINPIFATRDYPKKFQGRVTITADESTRTVYMELSSLTSEDTAVYYCARVLGGTRLYYALNVWGQGTTVTVS
VL: EIVMTQSPSSLSASVGDRVTISCRASQGISNFLAWFQQKPGQVPKLLIYVASTLQSGVPSRFSGSGSGTDFSLTINGLQPEDVATYYCQRYDSGLIFTFGPGTKVEIK
B5: g060d05 (Fab, V domains shown)
VH: KVQLVESGAEVKKPGSSVKVSCKTSGGSFSTYSITWVRQAPGQGLEWMGGINPIFATRDYAQKFQGRVTITADESTRTVYMELRNLRSEDTAVYYCARVFGGTRLYYALNVWGQGTLVTVS
VL: DVVMTQSPSSLSASVGDRVTITCRASQGISNFLAWHQQKPGQVPKLLIYGASTLQSGVPSRFSGSGSGTDFTLTINGLQPEDVATYYCQKYDSGLIFTFGPGTRVEIK
B6: g060d04 (Fab, V domains shown)
VH: KVQLVESGAEVKKPGSSVKVSCKASGGSFSTYAITWVRQAPGQGLEWMGGIIPIFASRDYAQKFQGRVTVTADESTRTVYMELSSLRSDDTAVYYCARVLGGTRLYYALNVWGQGTMVTVS
VL: DVVMTQFPSSLSASVGDRVTITCRASQGISNFLAWYQQKPGKVPELLIYGASTLQSGVPSRFSGSGSGAEFTLTINSLQPEDVATYYCQKYDSGLRFTFGPGTKVDIK
B7: g060h02 (Fab, V domains shown)
VH: EVQLVQSGAEVKKPGSSVKVSCKASGGSFSTYAITWVRQAPGQGLEWMGGIIPIFASRDYAQKFQGRVTITADESTRTVYMEPRSLRSEDTAVYYCARVLGGTRLYYALNVWGQGTLVTVS
VL: EIVLTQSPSSLSASVGDRVTITCRASQGISNFLAWYQQKPGKVPELLIYGASTLQSGVPSRFSGSGSGTDFTLTINSLQPEDVATYYCQKYDSGLRFTFGPGAKVDIK
B8: g060f09 (Fab, V domains shown)
VH: EVQLVQSGAEVKKPGSSVKVSCKTEGGTFSTYVISWMRQAPGQGLEWMGGIVPIFNTPNYAQKFQGRVTITADRSTSTAYMELRSLGSEDTAVYYCARVVGGTRSYYALGFWGQGTTVTVS
VL: DIQLTQSPSSLSASVGDSVTITCRASQGISNFLAWYQKKPGKVPRLLIYGASTLQSGVPSRFSGSGSGTDFTLTISSLQPEDVATYYCQEYSNALIFTFGPGTKVHIK

The target of the assay is T1, Ovalbumin. As to the kind of experiment: ELISA, periplasmic extract on coated Ovalbumin.
Consider B1, for which the binding result was “no binding (tested: 10 µg/ml Ovalbumin coat)”.

As to B2, the binding result is “no binding (tested: 10 µg/ml Ovalbumin coat)”.

B3: the binding result is reported as “no binding (tested: 10 µg/ml Ovalbumin coat)”.

Consider B4, for which the binding result is “no binding (tested: 10 µg/ml Ovalbumin coat)”.

As for B5, the binding result is “no binding (tested: 10 µg/ml Ovalbumin coat)”.

For the molecule B6, the binding result is recorded as “no binding (tested: 10 µg/ml Ovalbumin coat)”.

B7: the binding result is reported as “no binding (tested: 10 µg/ml Ovalbumin coat)”.

As for B8, the binding result was “no binding (tested: 10 µg/ml Ovalbumin coat)”.
